Assay results: publication PMC6804253, “Predicting and Experimentally Validating Hot-Spot Residues at Protein–Protein Interfaces” (ACS Chemical Biology, 2019)

Tests used:
[1] = test system: PPIs of the SKEMPI data set (by PDBID); details: ref SKEMPI, cited from earlier work; for sk_ddG_kJ (SKEMPI experimental ΔΔG, single mutation to alanine) / sk_ddG_kJ (SKEMPI experimental ΔΔG, mutation to alanine): sheet sortedByGroup, r_group DERKH; for sk_ddG_kJ (SKEMPI experimental ΔΔG, single mutation to alanine): complex given by PDBID; for sk_ddG_kJ (SKEMPI experimental ΔΔG, mutation to alanine): single mutation to alanine, complex by PDBID; for sk_ddG_kJ (SKEMPI experimental ΔΔG of binding, mutation to alanine): single mutation to alanine in the complex of the given PDBID
[2] = test system: PPIs of the SKEMPI data set (by PDBID); assay: SKEMPI experimental ΔΔG, single mutations to alanine; type: binding; details: for sk_class: class of the SKEMPI experimental ΔΔG
[3] = class by the 4.184 kJ/mol threshold, r_group DERKH
[4] = Positive / Neutral / Negative by ΔΔG threshold 4.184 kJ/mol, ref SKEMPI

Molecule | sk_ddG_kJ (SKEMPI experimental ΔΔG, single mutation to alanine) [1] [kJ] | sk_class [2] | sk_ddG_kJ (SKEMPI experimental ΔΔG, mutation to alanine) [1] [kJ] | sk_class (class of the SKEMPI experimental ΔΔG) [2, 3] | further results
1JRH KI47A (protein, UniProt P15260 18-245, looked up, variant K47A, extracellular domain) extracellular domain: EMGTADLGPSSVPTPTNVTIESYNMNPIVYWEYQIMPQVPVFTVEVANYGVKNSEWIDACINISHHYCNISDHVGDPSNSLWVRVKARVGQKESAYAKSEEFAVCRDGKIGPPKLDIRKEEKQIMIDIFHPSVFVNGDEQEVDYDPETTCYIRVYNVYVRMNGSEIQYKILTQKEDDCDEIQCQLAIPVSSLNSQYCVSAEGVLHVWGVTTEKSKEVCITIFNSSIKG | 16.11 | Positive (positive (a hot residue) ΔΔG ≥ 4.184 kJ/mol) | – | – | –
1JRH KI52A (protein, UniProt P15260 18-245, looked up, variant K52A, extracellular domain) extracellular domain: EMGTADLGPSSVPTPTNVTIESYNMNPIVYWEYQIMPQVPVFTVEVKNYGVANSEWIDACINISHHYCNISDHVGDPSNSLWVRVKARVGQKESAYAKSEEFAVCRDGKIGPPKLDIRKEEKQIMIDIFHPSVFVNGDEQEVDYDPETTCYIRVYNVYVRMNGSEIQYKILTQKEDDCDEIQCQLAIPVSSLNSQYCVSAEGVLHVWGVTTEKSKEVCITIFNSSIKG | 15.86 | Positive (positive (a hot residue) ΔΔG ≥ 4.184 kJ/mol) | – | – | –
1JRH KI98A (protein, UniProt P15260 18-245, looked up, variant K98A, extracellular domain) extracellular domain: EMGTADLGPSSVPTPTNVTIESYNMNPIVYWEYQIMPQVPVFTVEVKNYGVKNSEWIDACINISHHYCNISDHVGDPSNSLWVRVKARVGQKESAYAASEEFAVCRDGKIGPPKLDIRKEEKQIMIDIFHPSVFVNGDEQEVDYDPETTCYIRVYNVYVRMNGSEIQYKILTQKEDDCDEIQCQLAIPVSSLNSQYCVSAEGVLHVWGVTTEKSKEVCITIFNSSIKG | 2.80 | Neutral (neutral (little effect) 4.184 kJ/mol < ΔΔG > −4.184 kJ/mol) | – | – | –
1JRH RI84A (protein, UniProt P15260 18-245, looked up, variant R84A, extracellular domain) extracellular domain: EMGTADLGPSSVPTPTNVTIESYNMNPIVYWEYQIMPQVPVFTVEVKNYGVKNSEWIDACINISHHYCNISDHVGDPSNSLWVAVKARVGQKESAYAKSEEFAVCRDGKIGPPKLDIRKEEKQIMIDIFHPSVFVNGDEQEVDYDPETTCYIRVYNVYVRMNGSEIQYKILTQKEDDCDEIQCQLAIPVSSLNSQYCVSAEGVLHVWGVTTEKSKEVCITIFNSSIKG | 4.31 | Positive (positive (a hot residue) ΔΔG ≥ 4.184 kJ/mol) | – | – | –
1EMV EA32A (protein, UniProt P13479 1-86, looked up, variant E32A) Colicin-E9 immunity protein: MELKHSISDYTEAEFLQLVTTICNADTSSEEALVKLVTHFEEMTEHPSGSDLIYYPKEGDDDSPSGIVNTVKQWRAANGKSGFKQG | – | – | 0.92 | Neutral (neutral (little effect) 4.184 kJ/mol < ΔΔG > −4.184 kJ/mol) | –
1EMV DA51A (protein, UniProt P13479 1-86, looked up, variant D51A) Colicin-E9 immunity protein: MELKHSISDYTEAEFLQLVTTICNADTSSEEELVKLVTHFEEMTEHPSGSALIYYPKEGDDDSPSGIVNTVKQWRAANGKSGFKQG | – | – | 24.77 | Positive (positive (a hot residue) ΔΔG ≥ 4.184 kJ/mol) | –
1EMV DA60A (protein, UniProt P13479 1-86, looked up, variant D60A) Colicin-E9 immunity protein: MELKHSISDYTEAEFLQLVTTICNADTSSEEELVKLVTHFEEMTEHPSGSDLIYYPKEGADDSPSGIVNTVKQWRAANGKSGFKQG | – | – | 2.13 | Neutral (neutral (little effect) 4.184 kJ/mol < ΔΔG > −4.184 kJ/mol) | –
1EMV EA41A (protein, UniProt P13479 1-86, looked up, variant E41A) Colicin-E9 immunity protein: MELKHSISDYTEAEFLQLVTTICNADTSSEEELVKLVTHFAEMTEHPSGSDLIYYPKEGDDDSPSGIVNTVKQWRAANGKSGFKQG | – | – | 8.70 | Positive (positive (a hot residue) ΔΔG ≥ 4.184 kJ/mol) | –
1EMV HA46A (protein, UniProt P13479 1-86, looked up, variant H46A) Colicin-E9 immunity protein: MELKHSISDYTEAEFLQLVTTICNADTSSEEELVKLVTHFEEMTEAPSGSDLIYYPKEGDDDSPSGIVNTVKQWRAANGKSGFKQG | – | – | 3.47 | Neutral (neutral (little effect) 4.184 kJ/mol < ΔΔG > −4.184 kJ/mol) | –
2PCC DA34A (protein, UniProt P00431 68-361, looked up, variant D34A) Cytochrome c peroxidase, …: TTPLVHVASVEKGRSYEDFQKVYNAIALKLREDAEYDNYIGYGPVLVRLAWHTSGTWDKHDNTGGSYGGTYRFKKEFNDPSNAGLQNGFKFLEPIHKEFPWISSGDLFSLGGVTAVQEMQGPKIPWRCGRVDTPEDTTPDNGRLPDADKDADYVRTFFQRLNMNDREVVALMGAHALGKTHLKNSGYEGPWGAANNVFTNEFYLNLLNEDWKLEKNDANNEQWDSKSGYMMLPTDYSLIQDPKYLSIVKEYANDQDKFFKDFSKAFEKLLENGITFPKDAPSPFIFKTLEEQGL | – | – | – | – | sk_ddG_kJ (SKEMPI experimental ΔΔG of binding, mutation to alanine) [1]: -3.81 kJ; sk_class (class of the SKEMPI experimental ΔΔG) [2, 4]: Neutral (neutral (little effect) 4.184 kJ/mol < ΔΔG > −4.184 kJ/mol)
2PCC EA290A (protein, UniProt P00431 68-361, looked up, variant E290A) Cytochrome c peroxidase, …: TTPLVHVASVEKGRSYEDFQKVYNAIALKLREDDEYDNYIGYGPVLVRLAWHTSGTWDKHDNTGGSYGGTYRFKKEFNDPSNAGLQNGFKFLEPIHKEFPWISSGDLFSLGGVTAVQEMQGPKIPWRCGRVDTPEDTTPDNGRLPDADKDADYVRTFFQRLNMNDREVVALMGAHALGKTHLKNSGYEGPWGAANNVFTNEFYLNLLNEDWKLEKNDANNEQWDSKSGYMMLPTDYSLIQDPKYLSIVKEYANDQDKFFKDFSKAFEKLLENGITFPKDAPSPFIFKTLAEQGL | – | – | – | – | sk_ddG_kJ (SKEMPI experimental ΔΔG of binding, mutation to alanine) [1]: 25.90 kJ; sk_class (class of the SKEMPI experimental ΔΔG) [2, 4]: Positive (positive (a hot residue) ΔΔG ≥ 4.184 kJ/mol)
1KTZ RA25A (protein, UniProt P10600 301-412, looked up, variant R25A) Transforming growth factor …: ALDTNYCFRNLEENCCVRPLYIDFAQDLGWKWVHEPKGYYANFCSGPCPYLRSADTTHSTVLGLYNTLNPEASASPCCVPQDLEPLTILYYVGRTPKVEQLSNMVVKSCKCS | 6.19 | Positive (positive (a hot residue) ΔΔG ≥ 4.184 kJ/mol) | – | – | –
1KTZ RA94A (protein, UniProt P10600 301-412, looked up, variant R94A) Transforming growth factor …: ALDTNYCFRNLEENCCVRPLYIDFRQDLGWKWVHEPKGYYANFCSGPCPYLRSADTTHSTVLGLYNTLNPEASASPCCVPQDLEPLTILYYVGATPKVEQLSNMVVKSCKCS | 12.05 | Positive (positive (a hot residue) ΔΔG ≥ 4.184 kJ/mol) | – | – | –
1IAR EA19A (protein, UniProt P05112 25-153, looked up, variant E19A) Interleukin-4: HKCDITLQEIIKTLNSLTAQKTLCTELTVTDIFAASKNTTEKETFCRAATVLRQFYSHHEKDTRCLGATAQQFHRHKQLIRFLKRLDRNLWGLAGLNSCPVKEANQSTLENFLERLKTIMREKYSKCSS | – | – | -1.34 | Neutral (neutral (little effect) 4.184 kJ/mol < ΔΔG > −4.184 kJ/mol) | –
1IAR RA81A (protein, UniProt P05112 25-153, looked up, variant R81A) Interleukin-4: HKCDITLQEIIKTLNSLTEQKTLCTELTVTDIFAASKNTTEKETFCRAATVLRQFYSHHEKDTRCLGATAQQFHRHKQLIAFLKRLDRNLWGLAGLNSCPVKEANQSTLENFLERLKTIMREKYSKCSS | – | – | 2.01 | Neutral (neutral (little effect) 4.184 kJ/mol < ΔΔG > −4.184 kJ/mol) | –
1IAR KA77A (protein, UniProt P05112 25-153, looked up, variant K77A) Interleukin-4: HKCDITLQEIIKTLNSLTEQKTLCTELTVTDIFAASKNTTEKETFCRAATVLRQFYSHHEKDTRCLGATAQQFHRHAQLIRFLKRLDRNLWGLAGLNSCPVKEANQSTLENFLERLKTIMREKYSKCSS | – | – | 0.63 | Neutral (neutral (little effect) 4.184 kJ/mol < ΔΔG > −4.184 kJ/mol) | –
1IAR RA85A (protein, UniProt P05112 25-153, looked up, variant R85A) Interleukin-4: HKCDITLQEIIKTLNSLTEQKTLCTELTVTDIFAASKNTTEKETFCRAATVLRQFYSHHEKDTRCLGATAQQFHRHKQLIRFLKALDRNLWGLAGLNSCPVKEANQSTLENFLERLKTIMREKYSKCSS | – | – | 1.80 | Neutral (neutral (little effect) 4.184 kJ/mol < ΔΔG > −4.184 kJ/mol) | –
1IAR KA84A (protein, UniProt P05112 25-153, looked up, variant K84A) Interleukin-4: HKCDITLQEIIKTLNSLTEQKTLCTELTVTDIFAASKNTTEKETFCRAATVLRQFYSHHEKDTRCLGATAQQFHRHKQLIRFLARLDRNLWGLAGLNSCPVKEANQSTLENFLERLKTIMREKYSKCSS | – | – | 1.46 | Neutral (neutral (little effect) 4.184 kJ/mol < ΔΔG > −4.184 kJ/mol) | –
